Test results reported in patent US20260226152A1 (GlaxoSmithKline, published 2026).
Where a chain is given by its changes, count along the chain named. Read-outs that look alike come from different tables or passages of the source.

T1: Human IL-18 (human, UniProt Q14116 37-193)
T1 sequence: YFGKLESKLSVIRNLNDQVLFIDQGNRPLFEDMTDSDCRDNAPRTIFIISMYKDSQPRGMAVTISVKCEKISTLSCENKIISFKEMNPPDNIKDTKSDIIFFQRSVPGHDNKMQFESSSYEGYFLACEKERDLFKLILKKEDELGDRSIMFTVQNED

T2: Human IL-23 (human, UniProt Q9NPF7 20-189; P29460 23-328)
T2 sequence 1: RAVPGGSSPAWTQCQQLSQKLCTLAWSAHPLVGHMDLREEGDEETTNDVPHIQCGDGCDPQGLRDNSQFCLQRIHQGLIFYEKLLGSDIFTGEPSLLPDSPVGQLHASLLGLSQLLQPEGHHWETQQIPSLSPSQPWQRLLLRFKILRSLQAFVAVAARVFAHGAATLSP
T2 sequence 2: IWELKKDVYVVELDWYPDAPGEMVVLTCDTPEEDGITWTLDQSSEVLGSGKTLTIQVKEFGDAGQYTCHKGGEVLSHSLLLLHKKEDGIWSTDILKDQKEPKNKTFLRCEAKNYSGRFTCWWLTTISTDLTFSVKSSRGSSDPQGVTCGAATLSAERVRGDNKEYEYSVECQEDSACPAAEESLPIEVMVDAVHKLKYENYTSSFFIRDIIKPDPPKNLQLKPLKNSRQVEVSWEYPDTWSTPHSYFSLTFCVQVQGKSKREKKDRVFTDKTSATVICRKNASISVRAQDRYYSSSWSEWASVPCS

T3: Cynomolgus monkey IL-18 (Rhesus monkey (identical to cynomolgus …, UniProt Q9BGI5 37-193))
T3 sequence: T1 sequence with V11I, S50N, T63A, K79R, F134Y, E141K

B1: Heterodimeric bsAb 1 (bispecific antibody, human IgG1, kappa)
heavy 1: QVQLVQSGAEVKKPGASVKVSCKVSGEISTGYYFHWVRQAPGKGLEWMGRIDPEDDSTKYAERFKDRVTMTEDTSTDTAYMELSSLRSEDTAVYYCTTWRIYRDSSGRPFYVMDAWGQGTLVTVSSASTKGPSVFPLAPSSKSTSGGTAALGCEVTDYFPEPVTVSWNSGALTSGVHTFPAVLESSGLYSLSSVVTVPSSSLGTQTYICNVNHKPSNTKVDKKVEPKSCDKTHTCPPCPAPELAGAPSVFLFPPKPKDTLMISRTPEVTCVVVDVSHEDPEVKFNWYVDGVEVHNAKTKPREEQYNSTYRVVSVLTVLHQDWLNGKEYKCKVSNKALPAPIEKTISKAKGQPREPQVYVYPPSRDELTKNQVSLTCLVKGFYPSDIAVEWESNGQPENNYKTTPPVLDSDGSFALVSKLTVDKSRWQQGNVFSCSVMHEALHNHYTQKSLSLSPGK
light 1: DIQMTQSPSSVSASVGDRVTITCLASEDIYTYLTWYQQKPGKAPKLLIYGANKLQDGVPSRFSGSGSGTDYTLTISSLQPEDFATYYCLQGSKFPLTFGQGTKLEIKRTVAAPSVFIFPPSDERLKSGTASVVCLLNNFYPREAKVQWKVDNALQSGNSQESVTEQDSKDSTYSLSSRLTLSKADYEKHKVYACEVTHQGLSSPVTKSFNRGEC
heavy 2: QVQLVQSGAEVKKPGSSVKVSCKASGYTFTDQTIHWMRQAPGQGLEWIGYIYPRDDSPKYNENFKGKVTITADKSTSTAYMELSSLRSEDTAVYYCAIPDRSGYAWFIYWGQGTLVTVSSASTKGPSVFPLAPSSKSTSGGTAALGCRVKDYFPEPVTVSWNSGALTSGVHTFPAVLQSSGLYSLSSVVTVPSSSLGTQTYICNVNHKPSNTKVDKKVEPKSCDKTHTCPPCPAPELAGAPSVFLFPPKPKDTLMISRTPEVTCVVVDVSHEDPEVKFNWYVDGVEVHNAKTKPREEQYNSTYRVVSVLTVLHQDWLNGKEYKCKVSNKALPAPIEKTISKAKGQPREPQVYVLPPSRDELTKNQVSLLCLVKGFYPSDIAVEWESNGQPENNYLTWPPVLDSDGSFFLYSKLTVDKSRWQQGNVFSCSVMHEALHNHYTQKSLSLSPGK
light 2: DIQMTQSPSSLSASVGDRVTITCKASRDVAIAVAWYQQKPGKVPKLLIYWASTRHTGVPSRFSGSGSRTDFTLTISSLQPEDVADYFCHQYSSYPFTFGSGTKLEIKRTVAAPSVFIFPPSDEELKSGTASVECLLNNFYPREAKVQWKVDNALQSGNSQESVTEQDSKDSTYSLSSTLTLSKADYEKHKVYACEVTHQGLSSPVTKSFNRGEC
notes: Het-mAb format: anti-IL-18 mAb on ZA and anti-IL-23 mAb (risankizumab) on ZB, with Fc heterodimerisation and silencing mutations; Expressed transiently in HEK293 6E cells
B2: Heterodimeric bsAb 3 (bispecific antibody, human IgG1, kappa)
heavy 1: B1 heavy 1
light 1: B1 light 1
heavy 2: QVQLVQSGAEVKKPGASVKVSCKASGYIFITYWMTWVRQAPGQGLEWMGQIFPASGSADYNEKFEGRVTMTTDTSTSTAYMELRSLRSDDTAVYYCARGGGGFAYWGQGTLVTVSSASTKGPSVFPLAPSSKSTSGGTAALGCRVKDYFPEPVTVSWNSGALTSGVHTFPAVLQSSGLYSLSSVVTVPSSSLGTQTYICNVNHKPSNTKVDKKVEPKSCDKTHTCPPCPAPELAGAPSVFLFPPKPKDTLMISRTPEVTCVVVDVSHEDPEVKFNWYVDGVEVHNAKTKPREEQYNSTYRVVSVLTVLHQDWLNGKEYKCKVSNKALPAPIEKTISKAKGQPREPQVYVLPPSRDELTKNQVSLLCLVKGFYPSDIAVEWESNGQPENNYLTWPPVLDSDGSFFLYSKLTVDKSRWQQGNVFSCSVMHEALHNHYTQKSLSLSPGK
light 2: DIQMTQSPSSLSASVGDRVTITCRTSENIYSYLAWYQQKPGKAPKLLIYNAKTLAEGVPSRFSGSGSGTDFTLTISSLQPEDFATYYCQHHYGIPFTFGQGTKVEIKRTVAAPSVFIFPPSDEELKSGTASVECLLNNFYPREAKVQWKVDNALQSGNSQESVTEQDSKDSTYSLSSTLTLSKADYEKHKVYACEVTHQGLSSPVTKSFNRGEC
notes: Het-mAb format: anti-IL-18 mAb on ZA and anti-IL-23 mAb (tildrakizumab) on ZB, with Fc heterodimerisation and silencing mutations
B3: Heterodimeric bsAb 2 (bispecific antibody, human IgG1, kappa)
heavy 1: QVQLVQSGAEVKKPGSSVKVSCKASGYTFTDQTIHWMRQAPGQGLEWIGYIYPRDDSPKYNENFKGKVTITADKSTSTAYMELSSLRSEDTAVYYCAIPDRSGYAWFIYWGQGTLVTVSSASTKGPSVFPLAPSSKSTSGGTAALGCRVKDYFPEPVTVSWNSGALTSGVHTFPAVLQSSGLYSLSSVVTVPSSSLGTQTYICNVNHKPSNTKVDKKVEPKSCDKTHTCPPCP
light 1: B1 light 2
heavy 2: B1 heavy 1 with Y360L, T375L, K401L, T403W, A414F, V416Y
light 2: B1 light 1
notes: Het-mAb format: anti-IL-23 mAb (risankizumab) on ZA and anti-IL-18 mAb on ZB, with Fc heterodimerisation and silencing mutations
B4: IL-18 control 2 (antibody, V domains shown)
VH: QVQLVQSGAEVKKPGASVKVSCKVSGEISTGYYFHWVRQAPGKGLEWMGRIDPEDDSTKYAERFKDRVTMTEDTSTDTAYMELSSLRSEDTAVYYCTTWRIYRDSSGRPFYVMDAWGQGTLVTVSS
VL: DIQMTQSPSSVSASVGDRVTITCLASEDIYTYLTWYQQKPGKAPKLLIYGANKLQDGVPSRFSGSGSGTDYTLTISSLQPEDFATYYCLQGSKFPLTFGQGTKLEIK

Columns and labels:
Human IL-18 [1] = target: T1, Human IL-18; test: cell-based or functional assay
Human IL-18 [2] = target: T1, Human IL-18; test: cell-based or functional assay; remark: listed apart in the source
Human IL-23 [3] = target: T2, Human IL-23; test: cell-based or functional assay
Human IL-23 [4] = target: T2, Human IL-23; test: cell-based or functional assay; remark: listed apart in the source
Human IL-18 [5] = target: T1, Human IL-18; test: SPR (Biacore), antibody captured on Protein A/G, cytokine as analyte, 25 C, 1:1 fit, n=1
Experimental: (§1) A heterodimeric bsAb, alongside anti-IL-18 and anti-IL-23 common light chain control bispecific antibodies, were assessed for binding to human and cyno IL-18 and IL-23, using the Biacore 8K and T200 (Cytiva) surface plasmon resonance (SPR) instruments. All reagents were generated recombinantly in-house with the exception of Rhesus monkey IL-18 which was purchased from R&D systems (Cat #2548-RM-025/CF). Rhesus and cynomolgus monkey amino acid sequences are identical. Therefore, the protein will be referred to as cynomolgus monkey IL-18.
(§2) Heterodimeric bsAb, anti-IL-18 and anti-IL-23 common light chain bispecific control molecules were assessed for binding to recombinant human and cynomolgus monkey IL-18 and IL-23 using the Biacore 8K and T200 (Cytiva) SPR instruments. The antibodies were captured onto Protein A/G, which was immobilised onto flow cell 2 of 8 channels (Biacore 8K) or flow cells 2, 3 and 4 (Biacore T200) of a CM5 series S sensor chip by primary amine coupling. The IL-18 or IL-23 analytes were passed over the captured antibodies at varying concentrations between 0.04-25 nM. The association phase was for 240 seconds at 30 μl/min, followed by a dissociation step of up to 1200 seconds. A 0 nM (i.e., buffer alone) injection was used to double reference the binding curves. Regeneration of the chip surface between cycles was carried out using 50 mM NaOH. The assay was run at 25° C. in HBS-EP⁺ buffer. Biacore 8K control software version 3.0 was used to run the experiment. Data was analysed using Biacore 8K Insight evaluation software version 3.0. Biacore T200 control software version 1.0 was used to run the experiment. Data was analysed using Biacore T200 evaluation software version 2.0. Affinities and kinetics were determined using the 1:1 kinetic fit inherent to the software where possible. All affinity values generated using both instruments were combined to determine geometric mean values.

Human IL-23 [6] = target: T2, Human IL-23; test: as above
Experimental: as §1, §2

Human IL-18 [7] = target: T1, Human IL-18; test: cell-based or functional assay; remark: listed apart in the source
Cynomolgus monkey IL-18 = target: T3, Cynomolgus monkey IL-18; test: cell-based or functional assay

Binder	IC50 (pM, Mean), neutralisation of human IL-18-induced IFNγ secretion by KG-1 cells (Human IL-18 [1]) [pM]	pIC50 (GeoMean), neutralisation of human IL-18-induced IFNγ secretion by KG-1 cells (Human IL-18 [1])	IC50 Heterodimeric bsAbs (% of Parent IL-18 control 3), LPS + IL12-induced IFN-γ in human whole blood (Human IL-18 [2])	IC50 Heterodimeric bsAbs (nM), inhibition of LPS + IL12-induced IFN-γ in human whole blood (Human IL-18 [2]) [nM]	IC50 Heterodimeric bsAbs (% of Parent IL-23 control 2), IL-23-induced pSTAT3 in T cells of human whole blood (Human IL-23 [3])	IC50 Heterodimeric bsAbs (pM), inhibition of IL-23-induced pSTAT3 in CD3+CD161+ T cells of human whole blood (Human IL-23 [3]) [pM]	IC50 Heterodimeric bsAb (% of Parent IL-23 control 2), IL-23-induced mouse IL-17A in mouse splenocytes (Human IL-23 [4])	IC50 Heterodimeric bsAb (pM), inhibition of human IL-23-induced mouse IL-17A secretion in mouse splenocytes (Human IL-23 [4]) [pM]	Kd (Human IL-18 [5]) [nM]	Kd (Human IL-23 [6]) [nM]	IC50 Heterodimeric bsAbs (% of Parent IL-23 control 3), IL-23-induced pSTAT3 in T cells of human whole blood (Human IL-23 [3])	IC50 Heterodimeric bsAb (% of Parent IL-23 control 3), IL-23-induced mouse IL-17A in mouse splenocytes (Human IL-23 [4])	IC50 (pM, Mean), neutralisation of human IL-18-induced IFNγ secretion by KG-1 cells (Human IL-18 [7]) [pM]	pIC50 (GeoMean), neutralisation of human IL-18-induced IFNγ secretion by KG-1 cells (Human IL-18 [7])	IC50 (pM, Mean), neutralisation of cynomolgus IL-18-induced IFNγ secretion by KG-1 cells (Cynomolgus monkey IL-18) [pM]	pIC50 (GeoMean), neutralisation of cynomolgus IL-18-induced IFNγ secretion by KG-1 cells (Cynomolgus monkey IL-18)
B1	133	9.88	191 % of Parent	16	218 % of Parent	615	254 % of Parent	153	< 0.01	0.374						
B2	105	9.98	280 % of Parent	21.7		640		2670	< 0.01	0.499	100 % of Parent	387 % of Parent				
B3	77.6	10.1	240 % of Parent	18.2	249 % of Parent	711	274 % of Parent	147	< 0.01	0.158						
B4	41	10.4											39.8	10.4	64.6	10.2
